Measured values published in paper PMC9605926, “Safety of [^177Lu]Lu-NeoB treatment: a preclinical study characterizing absorbed dose and acute, early, and late organ toxicity” (European Journal of Nuclear Medicine and Molecular Imaging, 2022).
“And” between values parts separate entries of the source, which are not always exact repeats. Equal values may be shown once.

Key:
healthy Balb/c mice [1] = assay: Toxicity study, histopathology (5-point grade); 3 i.v. injections at 7-day interval; control group 2 = 3× 1200 pmol [175Lu]Lu-NeoB; treatment groups 1/2/3 = 3× 40 MBq/400 pmol, 80 MBq/800 pmol, 120 MBq/1200 pmol [177Lu]Lu-NeoB; type: in vivo, mouse
Description: (§1) Five different experimental groups (10 male and 10 female healthy animals per group; n = 100) were included in the radiotoxicity study and treated as follows: control group 1: 3 × vehicle (PBS + kolliphor HS 15 (1 mg/mL)); control group 2: 3 × 1200 pmol [^175Lu]Lu-NeoB; treatment group 1: 3 × 40 MBq/400 pmol [^177Lu]Lu-NeoB; treatment group 2: 3 × 80 MBq/800 pmol [^177Lu]Lu-NeoB; and treatment group 3: 3 × 120 MBq/1200 pmol [^177Lu]Lu-NeoB.
(§2) Animals received 3 injections with an interval of 7 days between each injection.
At 5, 19, and 43 weeks after the first injection, 3–4 male and 3–4 female animals of each group were sacrificed by isoflurane overdose after a blood sample was taken by retro-orbital puncture. Hereafter, the axillary lymph nodes, mesenteric lymph nodes, skin, mammary fat pad, sternum, pancreas, adrenal glands, kidneys, spleen, liver, gallbladder, stomach, duodenum, jejunum, ileum, caecum, colon, rectum, testes (M), epididymis (M), seminal vesicles (M), prostate gland (M), ovaries (F), oviducts (F), uterus-cervix (F), vagina (F), bladder, ureters, sciatic nerve, skeletal muscle, femur, lungs, trachea, esophagus, thymus, thyroid gland, aorta, heart, brain, pituitary gland, eyes, harderian glands, tongue, spinal column, and the tail were collected and analyzed macroscopically. All organs and tissues were formalin fixed (4% buffered formaldehyde) and shipped to the European Research Biology Centre (ERBC, Pomezia, Rome, Italy) where histological sampling, embedding, sectioning (5 µm thick), and hematoxylin–eosin staining were performed according to standard guidelines. All organs and tissues were analyzed microscopically by an experienced pathologist. A 5-point grading scale was used: 1: minimal change, 2: mild change, 3: moderate change, 4: marked change, 5: severe change.

healthy Balb/c mice [2] = assay: Toxicity study, hematology (same groups as A3); type: in vivo, mouse; settings: control group 2, 5, 11, 19, 30, 43 wk, mean±SD
Description: as §1, §2
Throughout the study, the animals were observed daily to check for physical signs of toxicity and signs of discomfort, and animals were weighed 2–3 times per week. Furthermore, at week -1, 5, 11, 19, 30, and 43, blood samples were collected by submandibular puncture from all animals that were in the study at that time point. All blood samples were analyzed for hematological parameters (hematocrit; hemoglobin; red blood cell count; white blood cell count; hemoglobin; mean cell hemoglobin concentration; mean cell volume; platelet count) on the scilVet abc + counter (Covetrus).

healthy Balb/c mice [3] = assay: Toxicity study, clinical chemistry; type: in vivo, mouse; settings: control group 2, 5, 11, 19, 30, 43 wk, mean±SD
Description: as §1, §2
In addition, the following clinical chemistry parameters were measured: sodium, potassium chloride, calcium, glucose, creatinine, urea, alanine aminotransferase (ALT), aspartate aminotransferase (AST), alkaline phosphatase (ALP), amylase, lipase, and cholesterol, using the Roche/Hitachi cobas c systems according to the standard protocol. To reach the volume necessary for measuring the clinical chemistry parameters, the blood plasma was diluted 3–5 times with demineralized water.

patients = settings: human, in vivo; cited from earlier work
Source text: Due to the very small size of murine kidneys and the long range of β^− particles, the murine kidneys receive a more homogeneous radiation dose compared to the much larger human kidneys. […] These ... || Bone marrow toxicity is a concern when using targeted radionuclide therapy with, for example, lutetium-177 labeled peptides with a long circulation time. Here, we found a decrease in WBC counts 5 weeks after radioligand injection in treatment group 3, which received bone marrow doses between 0.20 and 0.36 Gy. Although not clear from our histopathological analysis, this finding could potentially indicate bone marrow suppression. However, it should also be noted that the brief drop in WBC counts may have (partly) been caused by the reported urinary bladder inflammation. The observed ...

[4] = female wk 43, control group 2, grade 1
[5] = female wk 43, control group 2, grade 2
[6] = male wk 5, control group 2, grade 1
[7] = male wk 5, control group 2, grade 2
[8] = male wk 19, control group 2, grade 1
[9] = male wk 43, control group 2, grade 1
[10] = male wk 43, control group 2, grade 2

CC(C)CC(CC(C)C)NC(=O)[C@H](Cc1cnc[nH]1)NC(=O)CNC(=O)[C@@H](NC(=O)[C@H](C)NC(=O)[C@H](Cc1c[nH]c2ccccc12)NC(=O)[C@H](CCC(N)=O)NC(=O)[C@@H](Cc1ccccc1)NC(=O)COCC(=O)Nc1ccc(CNC(=O)CN2CCN(CC(=O)O)CCN(CC(=O)O)CCN(CC(=O)O)CC2)cc1)C(C)C [[^175Lu]Lu-NeoB]
Treatment-related toxicological effects (healthy Balb/c mice [1]; control group 2, 3× 1200 pmol, male and female): did not show any treatment-related toxicological effects | Adrenal glands subcapsular cell hyperplasia, incidence (healthy Balb/c mice [1]; female wk 5, control group 2, grade 1): 2/3 | Brain artifacts, incidence (healthy Balb/c mice [1]; female wk 5, control group 2, grade 3): 1/3 | Adrenal glands subcapsular cell hyperplasia, incidence (healthy Balb/c mice [1]; female wk 19, control group 2, grade 1): 1/3 | Adrenal glands subcapsular cell hyperplasia, incidence (healthy Balb/c mice [1]; female wk 19, control group 2, grade 2): 2/3 | Adrenal glands subcapsular cell hyperplasia, incidence (healthy Balb/c mice [1]; [4]): 1/4 | Liver inflammatory cell foci, incidence (healthy Balb/c mice [1]; [4]): 1/4 | Adrenal glands subcapsular cell hyperplasia, incidence (healthy Balb/c mice [1]; [5]): 2/4 | Pancreas inflammatory cell foci, incidence (healthy Balb/c mice [1]; [5]): 1/4 | Uterus endometrial hyperplasia, incidence (healthy Balb/c mice [1]; female wk 43, control group 2, grade 4): 1/4 | Adrenal glands accessory cortical tissue, incidence (healthy Balb/c mice [1]; [6]): 1/3 | Adrenal glands subcapsular cell hyperplasia, incidence (healthy Balb/c mice [1]; [6]): 1/3 | Adrenal glands subcapsular cell hyperplasia, incidence (healthy Balb/c mice [1]; [7]): 1/3 | Spleen extramedullary haematopoiesis, incidence (healthy Balb/c mice [1]; [7]): 1/3 | Adrenal glands subcapsular cell hyperplasia, incidence (healthy Balb/c mice [1]; [8]): 2/3 | Pancreas inflammatory cell foci, incidence (healthy Balb/c mice [1]; [8]): 1/3 | Urinary bladder proteinaceous plug, incidence (healthy Balb/c mice [1]; male wk 19, control group 2, grade 2): 1/3 | Adrenal glands subcapsular cell hyperplasia, incidence (healthy Balb/c mice [1]; [9]): 3/4 | Kidneys inflammatory cell foci, incidence (healthy Balb/c mice [1]; [9]): 1/4 | Testes germ cell depletion, incidence (healthy Balb/c mice [1]; [9]): 1/4 | Adrenal glands subcapsular cell hyperplasia, incidence (healthy Balb/c mice [1]; [10]): 1/4 | Pancreas inflammatory cell foci, incidence (healthy Balb/c mice [1]; [10]): 1/4 | Kidneys cyst/s, incidence (healthy Balb/c mice [1]; male wk 43, control group 2, grade 3): 1/4 | WBC (healthy Balb/c mice [2]; female): 7.27 ± 1.51 103/mm3 and 8.51 ± 2.34 103/mm3 and 6.74 ± 3.19 103/mm3 and 10.38 ± 2.86 103/mm3 and 7.40 ± 0.72 103/mm3 | WBC (healthy Balb/c mice [2]; male): 7.67 ± 1.50 103/mm3 and 8.37 ± 2.67 103/mm3 and 9.53 ± 2.84 103/mm3 and 9.80 ± 2.25 103/mm3 and 6.70 ± 2.71 103/mm3 | Alk. Phosphatase (healthy Balb/c mice [3]; female): 100.20 ± 6.96 U/L and 84.43 ± 7.63 U/L and 73.57 ± 9.88 U/L and 86.25 ± 8.54 U/L and 71.25 ± 14.93 U/L | Urea (healthy Balb/c mice [3]; female): 7.83 ± 0.88 mmol/L and 7.07 ± 1.19 mmol/L and 6.14 ± 0.38 mmol/L and 7.00 ± 0.00 mmol/L and 6.17 ± 0.76 mmol/L | Alk. Phosphatase (healthy Balb/c mice [3]; male): 117.70 ± 8.30 U/L and 100.29 ± 7.72 U/L and 62.50 ± 6.45 U/L and 80.00 ± 7.07 U/L and 67.50 ± 2.89 U/L | Urea (healthy Balb/c mice [3]; male): 7.17 ± 0.64 mmol/L and 5.61 ± 0.86 mmol/L and 5.75 ± 0.65 mmol/L and 6.75 ± 1.55 mmol/L and 8.00 ± 2.12 mmol/L

[^177Lu]Lu-DOTATATE
Average absorbed bone marrow dose (patients): 2 Gy | Average kidney dose in patients (patients): 20.1 ± 4.9 Gy | Minimal to mild nephrotoxicity, cases (patients): 6/79
